According to EP4467563A1 (priority 2023, dated 2024):

Target: T1, LDLR (Homo sapiens, UniProt P01130)
T1 construct: expressed in transfected cells; host or cells: HEK293 (ATCC CRL-1573)
Type: binding

T1 sequence (P01130 22-860): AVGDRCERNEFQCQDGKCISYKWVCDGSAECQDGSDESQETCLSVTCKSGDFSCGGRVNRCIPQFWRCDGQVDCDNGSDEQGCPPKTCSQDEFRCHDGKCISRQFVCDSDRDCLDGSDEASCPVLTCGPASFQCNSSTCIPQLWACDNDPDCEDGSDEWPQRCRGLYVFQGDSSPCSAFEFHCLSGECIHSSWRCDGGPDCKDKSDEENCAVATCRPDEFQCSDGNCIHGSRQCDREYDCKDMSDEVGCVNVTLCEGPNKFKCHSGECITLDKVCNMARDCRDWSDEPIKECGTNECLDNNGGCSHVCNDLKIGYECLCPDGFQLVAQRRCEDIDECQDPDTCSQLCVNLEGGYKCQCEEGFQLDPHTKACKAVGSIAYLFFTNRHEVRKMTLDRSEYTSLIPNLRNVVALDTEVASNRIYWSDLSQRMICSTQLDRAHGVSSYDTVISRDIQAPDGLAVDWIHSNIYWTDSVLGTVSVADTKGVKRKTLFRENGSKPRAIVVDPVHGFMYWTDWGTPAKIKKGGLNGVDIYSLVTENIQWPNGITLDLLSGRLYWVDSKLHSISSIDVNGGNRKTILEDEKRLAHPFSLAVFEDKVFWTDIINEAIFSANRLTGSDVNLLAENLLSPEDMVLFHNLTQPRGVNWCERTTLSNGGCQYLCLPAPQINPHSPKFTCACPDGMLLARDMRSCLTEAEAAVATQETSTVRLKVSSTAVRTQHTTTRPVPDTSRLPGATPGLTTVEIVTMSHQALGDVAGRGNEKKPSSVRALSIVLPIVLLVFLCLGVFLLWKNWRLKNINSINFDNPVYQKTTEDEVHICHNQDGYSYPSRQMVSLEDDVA

## BODIPY-FL-labelled LDL: BOPIDY FL complexed LDL purchased from ThermoFisher Scientific; fluorescent ligand for the BRET binding assay
  ligand-binding BRET signal (binding to LDLR): concentration-dependent ligand-binding BRET signal
